According to patent USRE48558 (Genentech, dated 2021):

T1: human CD79b on the cell surface (human, UniProt P40259 29-229)
T1 construct: In the Scatchard analysis the BJAB line also stably expressed cynomolgus CD79b; also called PRO36249; endogenous human CD79b on DoHH-2, BJAB and BJAB-luciferase cells
T1 sequence: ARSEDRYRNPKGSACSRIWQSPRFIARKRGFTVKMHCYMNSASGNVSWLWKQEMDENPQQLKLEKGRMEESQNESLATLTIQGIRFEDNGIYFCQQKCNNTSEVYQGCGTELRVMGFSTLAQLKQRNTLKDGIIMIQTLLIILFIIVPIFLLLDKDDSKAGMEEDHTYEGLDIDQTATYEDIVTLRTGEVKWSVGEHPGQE

T2: extracellular domain of human CD79b (human, UniProt P40259 29-159)
T2 construct: also called huCD79becd; huCD79b-ecd
T2 sequence: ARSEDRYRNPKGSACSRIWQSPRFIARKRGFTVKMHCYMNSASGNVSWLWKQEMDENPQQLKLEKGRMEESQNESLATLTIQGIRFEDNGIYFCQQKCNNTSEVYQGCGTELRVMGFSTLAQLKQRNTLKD

B1: thio huMA79b.v18-HC(A118C)-BMPEO-DM1 (antibody, human IgG1, kappa)
heavy: not shown
light: DIQLTQSPSSLSASVGDRVTITCKASQSVDYDGDSFLNWYQQKPGKAPKLLIYAASNLESGVPSRFSGSGSGTDFTLTISSLQPEDFATYYCQQSNEDPLTFGQGTKVEIKRTVAAPSVFIFPPSDEQLKSGTASVVCLLNNFYPREAKVQWKVDNALQSGNSQESVTEQDSKDSTYSLSSTLTLSKADYEKHKVYACEVTHQGLSSPVTKSFNRGEC
modifications: BMPEO-DM1 on the engineered Cys at EU position 118 (sequential 118; Kabat 114)
notes: Cysteine engineered antibody drug conjugate; also called huMA79b.v18-HC(A118C) thioMAb-BMPEO-DM1
B2: thio huMA79b.v18-HC(A118C)-MC-vcPAB-MMAE (antibody, human IgG1, kappa)
heavy: not shown
light: DIQLTQSPSSLSASVGDRVTITCKASQSVDYDGDSFLNWYQQKPGKAPKLLIYAASNLESGVPSRFSGSGSGTDFTLTISSLQPEDFATYYCQQSNEDPLTFGQGTKVEIKRTVAAPSVFIFPPSDEQLKSGTASVVCLLNNFYPREAKVQWKVDNALQSGNSQESVTEQDSKDSTYSLSSTLTLSKADYEKHKVYACEVTHQGLSSPVTKSFNRGEC
modifications: MC-val-cit-PAB-MMAE on the engineered Cys at EU position 118 (sequential 118; Kabat 114)
notes: Cysteine engineered antibody drug conjugate
B3: thio huMA79b.v18-HC(A118C)-MC-MMAF (antibody, human IgG1, kappa)
heavy: not shown
light: DIQLTQSPSSLSASVGDRVTITCKASQSVDYDGDSFLNWYQQKPGKAPKLLIYAASNLESGVPSRFSGSGSGTDFTLTISSLQPEDFATYYCQQSNEDPLTFGQGTKVEIKRTVAAPSVFIFPPSDEQLKSGTASVVCLLNNFYPREAKVQWKVDNALQSGNSQESVTEQDSKDSTYSLSSTLTLSKADYEKHKVYACEVTHQGLSSPVTKSFNRGEC
modifications: MC-MMAF on the engineered Cys at EU position 118 (sequential 118; Kabat 114)
notes: as for B2
B4: MA79b-grafted humanized antibody variant 28 (antibody, human IgG1, kappa)
light: DIQLTQSPSSLSASVGDRVTITCKASQSVDYEGDSFLNWYQQKPGKAPKLLIYAASNLESGVPSRFSGSGSGTDFTLTISSLQPEDFATYYCQQSNEDPLTFGQGTKVEIKRTVAAPSVFIFPPSDEQLKSGTASVVCLLNNFYPREAKVQWKVDNALQSGNSQESVTEQDSKDSTYSLSSTLTLSKADYEKHKVYACEVTHQGLSSPVTKSFNRGEC
heavy: not shown
notes: IgG; also called huMA79b.v28
B5: MA79b-grafted humanized antibody variant 32 (antibody, human IgG1, kappa, V domains shown)
VH: EVQLVESGGGLVQPGGSLRLSCAASGYTFSSYWIEWVRQAPGKGLEWIGEILPGGGDTNYNEIFKGRATFSADTSKNTAYLQMNSLRAEDTAVYYCTRRVPIRLDYWGQGTLVTVSS
VL: DIQLTQSPSSLSASVGDRVTITCKASQSVDYSGDSFLNWYQQKPGKAPKLFIYAASNLESGVPSRFSGSGSGTDFTLTISSLQPEDFATYYCQQSNEDPLTFGQGTKVEIKR
notes: also called huMA79b.v32; MA79b.v32
B6: huMA79b H3-10 (Fab) (Fab, name in Kabat numbering, V domains shown)
VH: EVQLVESGGGLVQPGGSLRLSCAASGYTFSSYWIEWVRQAPGKGLEWVGEILPGGGDTNYNEIFKGRFTISADTSKNTAYLQMNSLRAEDTAVYYCTRRVPIRLDYWGQGTLVTVSS
VL: DIQMTQSPSSLSASVGDRVTITCKASQSVDYDGDSFLNWYQQKPGKAPKLLIYAASNLESGVPSRFSGSGSGTDFTLTISSLQPEDFATYYCQQSNEDPLTFGQGTKVEIKR
notes: Fab on phage in the selection; purified Fab in FACS; rest as huMA79b graft; also called H3-10 mutation
B7: huMA79b graft variant H1-1 (Fab) (Fab, name in Kabat numbering, V domains shown)
VH: EVQLVESGGGLVQPGGSLRLSCAASGYPFNRYWINWVRQAPGKGLEWVGEILPGGGDTNYNEIFKGRFTISADTSKNTAYLQMNSLRAEDTAVYYCTRRVPVYFDYWGQGTLVTVSS
VL: DIQMTQSPSSLSASVGDRVTITCKASQSVDYDGDSFLNWYQQKPGKAPKLLIYAASNLESGVPSRFSGSGSGTDFTLTISSLQPEDFATYYCQQSNEDPLTFGQGTKVEIKR
notes: Fab on phage in the selection; purified Fab in FACS; rest as huMA79b graft; also called H1-1 mutation
B8: huMA79b graft variant SEQ ID NO: 106 (Fab, name in Kabat numbering, V domains shown)
VH: EVQLVESGGGLVQPGGSLRLSCAASGYTFSSYWIEWVRQAPGKGLEWVGEILPGGGDTNYNEIFKGRFTISADTSKNTAYLQMNSLRAEDTAVYYCTRRIPVYFDYWGQGTLVTVSS
VL: DIQMTQSPSSLSASVGDRVTITCKASQSVDYDGDSFLNWYQQKPGKAPKLLIYAASNLESGVPSRFSGSGSGTDFTLTISSLQPEDFATYYCQQSNEDPLTFGQGTKVEIKR
notes: Fab on phage; rest as huMA79b graft
B9: huMA79b graft variant SEQ ID NO: 100 (Fab, name in Kabat numbering, V domains shown)
VH: EVQLVESGGGLVQPGGSLRLSCAASGYTFSSYWIEWVRQAPGKGLEWVGEILPGGGDTNYNEIFKGRFTISADTSKNTAYLQMNSLRAEDTAVYYCTRRVPVRLDYWGQGTLVTVSS
VL: DIQMTQSPSSLSASVGDRVTITCKASQSVDYDGDSFLNWYQQKPGKAPKLLIYAASNLESGVPSRFSGSGSGTDFTLTISSLQPEDFATYYCQQSNEDPLTFGQGTKVEIKR
notes: as for B8

Molecular target: T1, human CD79b on the cell surface
Assay: FACS on BJAB-luciferase cells, PE anti-human IgG detection

Row | Binder | binding result
1 | B1 | binds
2 | B2 | binds
3 | B3 | binds

Molecular target: T1, human CD79b on the cell surface
Assay: Scatchard analysis, IgG, BJAB cells stably expressing cynomolgus CD79b and endogenous human CD79b

Row | Binder | Kd [pM]
4 | B4 | 440
5 | B5 | 240

Molecular target: T1, human CD79b on the cell surface
Assay: FACS on DoHH-2 cells, Fab, PE anti-human kappa detection

Row | Binder | binding result
6 | B6 | binds
7 | B7 | binds

Molecular target: T2, extracellular domain of human CD79b
Assay: phage selection, Fab on phage, plate-bound huCD79becd

Row | Binder | binding result
8 | B6 | binds
9 | B8 | binds
10 | B9 | binds
11 | B7 | binds
